Reference: the supplement of paper PMC6379048

Experiments:
Assay in all cases: EC50 of free RNA motif oligo competing protein binding to immobilised probe
DDX21 = target: T1, DDX21 (UniProt Q9NR30)
T1 sequence: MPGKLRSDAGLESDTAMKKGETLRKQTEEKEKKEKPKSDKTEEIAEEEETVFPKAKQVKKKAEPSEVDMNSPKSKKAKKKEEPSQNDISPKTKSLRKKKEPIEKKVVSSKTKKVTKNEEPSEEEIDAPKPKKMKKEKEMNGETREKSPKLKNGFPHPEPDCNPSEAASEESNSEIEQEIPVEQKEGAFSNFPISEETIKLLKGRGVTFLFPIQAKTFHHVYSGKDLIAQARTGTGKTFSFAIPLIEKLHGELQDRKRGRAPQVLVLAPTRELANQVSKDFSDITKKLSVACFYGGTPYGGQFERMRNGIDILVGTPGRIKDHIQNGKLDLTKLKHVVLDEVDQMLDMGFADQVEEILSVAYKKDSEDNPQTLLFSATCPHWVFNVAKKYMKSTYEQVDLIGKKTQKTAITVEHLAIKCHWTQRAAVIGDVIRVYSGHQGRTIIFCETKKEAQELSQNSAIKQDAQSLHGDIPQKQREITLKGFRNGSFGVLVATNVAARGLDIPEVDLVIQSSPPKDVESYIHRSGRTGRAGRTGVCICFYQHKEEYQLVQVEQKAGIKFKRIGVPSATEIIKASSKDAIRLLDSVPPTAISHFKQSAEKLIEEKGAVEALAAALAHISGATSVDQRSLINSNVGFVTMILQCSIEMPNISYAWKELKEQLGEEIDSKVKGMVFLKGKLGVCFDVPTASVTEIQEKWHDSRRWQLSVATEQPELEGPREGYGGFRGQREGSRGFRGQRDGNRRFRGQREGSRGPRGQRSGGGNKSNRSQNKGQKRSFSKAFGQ
In short: (§1)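 Kd was calculated as EC50, taken from a four-parameter log-logistic fit, multiplied by a protein-dependent depletion factor. The assay used HEK293-FT lysate (2.5 mg protein/well) pre-incubated for 1 h at 4°C with free RNA oligos (0 nM to 30 μM), then incubated for 30 min at 4°C with the matching oligos bound through a 5′-amino-C6 linker to NHS-Sepharose beads. Bound proteins were measured by label-free LC-MS/MS and normalised to the control.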

MRPL43 = MRPL43 (UniProt Q8N983)
In short: as §1

C1QBP = target: T2, C1QBP (UniProt Q07021)
T2 sequence: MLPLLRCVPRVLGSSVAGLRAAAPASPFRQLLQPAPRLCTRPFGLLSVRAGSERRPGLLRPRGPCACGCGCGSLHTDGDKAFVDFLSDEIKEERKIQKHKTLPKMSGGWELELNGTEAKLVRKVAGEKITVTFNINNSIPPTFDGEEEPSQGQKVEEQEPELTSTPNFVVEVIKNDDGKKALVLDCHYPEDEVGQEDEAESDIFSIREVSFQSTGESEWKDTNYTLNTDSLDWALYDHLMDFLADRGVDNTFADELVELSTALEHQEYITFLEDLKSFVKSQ
In short: as §1

SYNCRIP = target: T3, SYNCRIP (UniProt O60506)
T3 sequence: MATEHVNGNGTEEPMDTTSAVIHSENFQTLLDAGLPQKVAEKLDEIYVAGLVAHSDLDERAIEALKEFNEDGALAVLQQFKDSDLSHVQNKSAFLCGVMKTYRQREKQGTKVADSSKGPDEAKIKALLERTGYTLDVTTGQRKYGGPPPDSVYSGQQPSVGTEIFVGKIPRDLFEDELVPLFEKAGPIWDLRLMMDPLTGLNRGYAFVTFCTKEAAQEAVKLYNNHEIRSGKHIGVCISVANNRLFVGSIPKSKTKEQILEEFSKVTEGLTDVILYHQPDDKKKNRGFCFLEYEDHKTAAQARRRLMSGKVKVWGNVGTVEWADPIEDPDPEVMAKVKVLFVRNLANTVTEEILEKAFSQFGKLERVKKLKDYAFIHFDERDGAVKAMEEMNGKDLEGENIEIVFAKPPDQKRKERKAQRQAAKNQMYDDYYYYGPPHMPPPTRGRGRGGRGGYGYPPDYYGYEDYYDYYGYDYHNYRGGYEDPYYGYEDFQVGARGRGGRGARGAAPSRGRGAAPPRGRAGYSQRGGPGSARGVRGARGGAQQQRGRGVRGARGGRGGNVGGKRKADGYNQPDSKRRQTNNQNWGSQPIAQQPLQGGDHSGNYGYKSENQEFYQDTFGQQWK
In short: as §1

TIA1 = target: T4, TIA1 (UniProt P31483)
T4 sequence: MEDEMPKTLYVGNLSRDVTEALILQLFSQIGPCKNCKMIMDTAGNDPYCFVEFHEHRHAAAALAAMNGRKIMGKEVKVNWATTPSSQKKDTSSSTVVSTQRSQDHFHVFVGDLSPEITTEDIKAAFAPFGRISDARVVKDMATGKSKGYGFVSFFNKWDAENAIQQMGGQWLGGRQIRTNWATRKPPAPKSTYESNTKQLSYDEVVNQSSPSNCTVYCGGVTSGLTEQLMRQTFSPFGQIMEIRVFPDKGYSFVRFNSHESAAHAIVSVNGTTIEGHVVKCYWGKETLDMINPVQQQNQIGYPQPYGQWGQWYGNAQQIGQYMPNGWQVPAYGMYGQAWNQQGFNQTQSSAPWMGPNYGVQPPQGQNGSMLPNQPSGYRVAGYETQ
In short: as §1

MRPS9 = MRPS9 (UniProt P82933)
In short: as §1

RBM38 = target: T5, RBM38 (UniProt Q9H0Z9)
T5 sequence: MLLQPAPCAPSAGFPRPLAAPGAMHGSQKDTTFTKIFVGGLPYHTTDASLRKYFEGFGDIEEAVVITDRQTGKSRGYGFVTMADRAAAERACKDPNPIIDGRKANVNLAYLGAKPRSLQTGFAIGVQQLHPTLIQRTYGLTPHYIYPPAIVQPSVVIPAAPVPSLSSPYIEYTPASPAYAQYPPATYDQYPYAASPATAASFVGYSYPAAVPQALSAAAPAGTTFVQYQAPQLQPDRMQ
In short: as §1

CNBP = CNBP (UniProt P62633)
Chain of CNBP (P62633 whole entry): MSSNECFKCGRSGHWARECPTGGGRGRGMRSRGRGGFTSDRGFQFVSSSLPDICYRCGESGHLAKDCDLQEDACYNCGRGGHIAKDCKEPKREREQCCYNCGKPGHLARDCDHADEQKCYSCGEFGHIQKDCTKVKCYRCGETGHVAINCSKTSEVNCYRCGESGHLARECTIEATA
In short: as §1

Question: Which results are given for CUGUCCU?
Answer: EC50 (DDX21): 0.116 µM; EC50 (MRPL43): 0.104 µM

Question: AAUAAA was tested. Which EC50 (C1QBP) did it give?
Answer: 1.47 µM

Question: And the EC50 (SYNCRIP)?
Answer: 1.85 µM

Question: What about the EC50 (TIA1) of the same sequence?
Answer: 2.11 µM

Question: What does the source list for UAUUUAU?
Answer: EC50 (MRPS9): 0.0294 µM; EC50 (RBM38): 2.91 µM; EC50 (CNBP): 2.24 µM
